± gives the standard deviation of the averaged measurements.
Assay: total protein half-life in vivo (active degradation + dilution); higher = more stable protein
[1] = E. coli NCM3722 delta-clpP delta-lon delta-hslV, growth: N-lim chemostat, doubling time 6 h
[2] = E. coli NCM3722 delta-hslV, growth: N-lim chemostat, doubling time 6 h
[3] = E. coli NCM3722 delta-lon, growth: N-lim chemostat, doubling time 6 h
[4] = E. coli NCM3722 delta-smpB, growth: N-lim chemostat, doubling time 6 h
[5] = wild type E. coli NCM3722, growth: C-lim chemostat, doubling time 3 h
[6] = wild type E. coli NCM3722, growth: C-lim chemostat, doubling time 6 h
[7] = wild type E. coli NCM3722, growth: C-lim chemostat, doubling time 12 h
[8] = wild type E. coli NCM3722, growth: N-lim chemostat, doubling time 6 h
[9] = wild type E. coli NCM3722, growth: N-lim chemostat, doubling time 12 h
[10] = wild type E. coli NCM3722, growth: P-lim chemostat, doubling time 6 h
[11] = wild type E. coli NCM3722, growth: P-lim chemostat, doubling time 12 h
[12] = E. coli NCM3722 delta-clpP, growth: N-lim chemostat, doubling time 6 h

Sequence	total protein half-life in vivo [1] [h]	total protein half-life in vivo [2] [h]	total protein half-life in vivo [3] [h]	total protein half-life in vivo [4] [h]	total protein half-life in vivo [5] [h]	total protein half-life in vivo [6] [h]	total protein half-life in vivo [7] [h]	total protein half-life in vivo [8] [h]	total protein half-life in vivo [9] [h]	total protein half-life in vivo [10] [h]	total protein half-life in vivo [11] [h]	total protein half-life in vivo [12] [h]
MNKTLIAAAVAGIVLLASNAQAQTVPEGYQLQQVLMMSRHNLRAPLANNGSVLEQSTPNKWPEWDVPGGQLTTKGGVLEVYMGHYMREWLAEQGMVKSGECPPPYTVYAYANSLQRTVATAQFFITGAFPGCDIPVHHQEKMGTMDPTFNPVITDDSAAFSEQAVAAMEKELSKLQLTDSYQLLEKIVNYKDSPACKEKQQCSLVDGKNTFSAKYQQEPGVSGPLKVGNSLVDAFTLQYYEGFPMDQVAWGEIKSDQQWKVLSKLKNGYQDSLFTSPEVARNVAKPLVSYIDKALVTDRTSAPKITVLVGHDSNIASLLTALDFKPYQLHDQNERTPIGGKIVFQRWHDSKANRDLMKIEYVYQSAEQLRNADALTLQAPAQRVTLELSGCPIDADGFCPMDKFDSVLNEAVK	5.71 ± 0.47	6.81 ± 0.17	6.9 ± 0.04	5.96 ± 0.12	3.51 ± 0.45	6.07 ± 0.17	12 ± 1.7	6.05 ± 0.63	11.1 ± 1.5	6.4 ± 1.7	12.3 ± 1.5	
MNKYLKYFSGTLVGLMLSTSAFAAAEYAVVLKTLSNPFWVDMKKGIEDEAKTLGVSVDIFASPSEGDFQSQLQLFEDLSNKNYKGIAFAPLSSVNLVMPVARAWKKGIYLVNLDEKIDMDNLKKAGGNVEAFVTTDNVAVGAKGASFIIDKLGAEGGEVAIIEGKAGNASGEARRNGATEAFKKASQIKLVASQPADWDRIKALDVATNVLQRNPNIKAIYCANDTMAMGVAQAVANAGKTGKVLVVGTDGIPEARKMVEAGQMTATVAQNPADIGATGLKLMVDAEKSGKVIPLDKAPEFKLVDSILVTQ	4 ± 0.15	5.783 ± 0.043	6.64 ± 0.52	5.82 ± 0.24	3.15 ± 0.034	6.52 ± 2	9.15 ± 0.44	5.9 ± 0.064	12.3 ± 0.66	5.91 ± 0.37	11.3 ± 0.52	5.04 ± 0.31
MNKYTINDITRASGGFAMLAVDQREAMRMMFAAAGAPAPVADSVLTDFKVNAAKALSPYASAILVDQQFCYRQVVEQNAIAKSCAMIVAADEFIPGNGIPVDSVVIDRKINPLQIKQDGGKALKLLVLWRSDEDAQQRLDMVKEFNELCHSHGLVSIIEPVVRPPRRGDKFDREQAIIDAAKELGDSGADLYKVEMPLYGKGPQQELLCASQRLNDHINMPWVILSSGVDEKLFPRAVRVAMTAGASGFLAGRAVWASVVGLPDNELMLRDVCAPKLQQLGDIVDEMMAKRR	5.2 ± 0.61	4.42 ± 0.41	5.52 ± 0.98	4.09 ± 0.52	2.93 ± 0.18	6.51 ± 1.8	8.63 ± 1.5	4.19 ± 0.58	6.3 ± 0.93	5.05 ± 0.15	10.2 ± 0.62	4.38 ± 0.96
MNLDDIINSMMPEVYQRLSTAVELGKWPDGVALTEEQKENCLQLVMLWQARHNIEAQHMTIDTNGQMVMKSKQQLKEDFGISAKPIAMFK	4.42 ± 2.1				0.231 ± 0.0036	0.237 ± 0.16	0.116 ± 0.16	0.172		0.371 ± 0.17	1.17 ± 1.3	0.712
MNLMTTITGVVLAGGKARRMGGVDKGLLELNGKPLWQHVADALMTQLSHVVVNANRHQEIYQASGLKVIEDSLADYPGPLAGMLSVMQQEAGEWFLFCPCDTPYIPPDLAARLNHQRKDAPVVWVHDGERDHPTIALVNRAIEPLLLEYLQAGERRVMVFMRLAGGHAVDFSDHKDAFVNVNTPEELARWQEKR	4.29 ± 0.5	3.728 ± 0.033	4.1 ± 0.19	3.59 ± 0.12	2.95 ± 0.26	5.9 ± 0.46	9.71 ± 3.2	4.46	6.67 ± 1.5	5.046 ± 0.009	10.9 ± 0.43	3.95 ± 0.19
MNLNSIPAFDDNYIWVLNDEAGRCLIVDPGDAEPVLNAIAANNWQPEAIFLTHHHHDHVGGVKELVEKFPQIVVYGPQETQDKGTTQVVKDGETAFVLGHEFSVIATPGHTLGHICYFSKPYLFCGDTLFSGGCGRLFEGTASQMYQSLKKLSALPDDTLVCCAHEYTLSNMKFALSILPHDLSINDYYRKVKELRAKNQITLPVILKNERQINVFLRTEDIDLINVINEETLLQQPEERFAWLRSKKDRF [P0AC84]	4.67 ± 0.3	4.88 ± 0.89	4.5351 ± 0.0033	4.01 ± 0.41	2.81 ± 0.13	4.76 ± 0.13	7.09 ± 1.1	4.31 ± 0.21	6.316 ± 0.03	4.81 ± 0.13	8.75 ± 0.89	4.24 ± 0.2
MNMEEIVALSVKHNVSDLHLCSAWPARWRIRGRMEAAPFDTPDVEELLREWLDDDQRAILLENGQLDFAVSLAENQRLRGSAFAQRHGISLALRLLPSHCPQLEQLGAPTVLPELLKSENGLILVTGATGSGKSTTLAAMVGYLNQHADAHILTLEDPVEYLYASQRCLIQQREIGLHCMTFASGLRAALREDPDVILLGELRDSETIRLALTAAETGHLVLATLHTRGAAQAVERLVDSFPAQEKDPVRNQLAGSLRAVLSQKLEVDKQEGRVALFELLINTPAVGNLIREGKTHQLPHVIQTGQQVGMITFQQSYQHRVGEGRL	5.68 ± 0.4											
MNMFFRLTALAGLLAIAGQTFAVEDITRADQIPVLKEETQHATVSERVTSRFTRSHYRQFDLDQAFSAKIFDRYLNLLDYSHNVLLASDVEQFAKKKTELGDELRSGKLDVFYDLYNLAQKRRFERYQYALSVLEKPMDFTGNDTYNLDRSKAPWPKNEAELNALWDSKVKFDELSLKLTGKTDKEIRETLTRRYKFAIRRLAQTNSEDVFSLAMTAFAREIDPHTNYLSPRNTEQFNTEMSLSLEGIGAVLQMDDDYTVINSMVAGGPAAKSKAISVGDKIVGVGQTGKPMVDVIGWRLDDVVALIKGPKGSKVRLEILPAGKGTKTRTVTLTRERIRLEDRAVKMSVKTVGKEKVGVLDIPGFYVGLTDDVKVQLQKLEKQNVSSVIIDLRSNGGGALTEAVSLSGLFIPAGPIVQVRDNNGKVREDSDTDGQVFYKGPLVVLVDRFSASASEIFAAAMQDYGRALVVGEPTFGKGTVQQYRSLNRIYDQMLRPEWPALGSVQYTIQKFYRVNGGSTQRKGVTPDIIMPTGNEETETGEKFEDNALPWDSIDAATYVKSGDLTAFEPELLKEHNARIAKDPEFQNIMKDIARFNAMKDKRNIVSLNYAVREKENNEDDATRLARLNERFKREGKPELKKLDDLPKDYQEPDPYLDETVNIALDLAKLEKARPAEQPAPVK	6.08 ± 0.32	6.0465 ± 0.0037	6.36 ± 0.18	5.95 ± 0.39	2.99 ± 0.082	5.66 ± 0.27	10.9 ± 1.1	6.13 ± 0.35	12.8 ± 0.28	5.879 ± 0.052	12.9 ± 1.3	6.08 ± 0.59

Reference: the supplement of paper PMC11246515
